From the Immune Epitope Database (IEDB)

Columns and labels:
HLA-B*18:01 = assay: IEDB peptide-MHC binding, purified MHC/competitive/radioactivity; filed as Kd, often an IC50 or EC50 that approximates it; ≥ and ≤ were set here for values at or beyond the usual limits of such assays
HLA-B*40:01 = assay: as above
HLA-B*40:02 = assay: as above
HLA-B*44:02 = assay: as above
HLA-B*44:03 = assay: as above
HLA-B*45:01 = assay: as above
HLA-A*26:01 [1] = assay: IEDB peptide-MHC binding, purified MHC/competitive/fluorescence; filed as Kd, often an IC50 or EC50 that approximates it; ≥ and ≤ were set here for values at or beyond the usual limits of such assays; conditions: source organism: Escherichia coli str. K-12 substr. MG1655
HLA-B*15:01 = assay: as above; conditions: source organism: Escherichia coli str. K-12 substr. MG1655
HLA-A*68:02 = assay: IEDB peptide-MHC binding, purified MHC/competitive/radioactivity; filed as Kd, often an IC50 or EC50 that approximates it; ≥ and ≤ were set here for values at or beyond the usual limits of such assays
HLA-A*26:01 [2] = assay: as above
HLA-A*01:01 = assay: as above; conditions: source organism: Dengue virus 3 Martinique/1243/1999
HLA-B*51:01 [3] = assay: IEDB peptide-MHC binding, purified MHC/competitive/fluorescence; filed as Kd, often an IC50 or EC50 that approximates it; ≥ and ≤ were set here for values at or beyond the usual limits of such assays; conditions: source organism: Listeria monocytogenes serotype 4b str. CLIP 80459
HLA-A*02:02 = assay: IEDB peptide-MHC binding, purified MHC/competitive/radioactivity; filed as Kd, often an IC50 or EC50 that approximates it; ≥ and ≤ were set here for values at or beyond the usual limits of such assays; conditions: source organism: Trypanosoma cruzi
HLA-A*02:03 = assay: as above; conditions: source organism: Trypanosoma cruzi
HLA-A*02:06 = assay: as above
HLA-B*51:01 [4] = assay: as above; conditions: source organism: Dengue virus 3 Martinique/1243/1999
HLA-B*07:02 = assay: as above; conditions: source organism: Dengue virus 1 Brazil/97-11/1997
[5] = source organism: SARS coronavirus Tor2
[6] = source organism: Mammarenavirus choriomeningitidis
[7] = source organism: Mammarenavirus machupoense
[8] = source organism: Mammarenavirus juninense
[9] = source organism: Mammarenavirus brazilense
[10] = source organism: Mammarenavirus lassaense
[11] = source organism: Dengue virus 2 Jamaica/1409/1983
[12] = source organism: Dengue virus 3 Martinique/1243/1999
[13] = source organism: Trypanosoma cruzi
[14] = source organism: Dengue virus 1 Brazil/97-11/1997

Sequence: AEIVDTVSA
- Kd (HLA-B*18:01; [5]): 8190 nM
- Kd (HLA-B*40:01; [5]): 396 nM
- Kd (HLA-B*40:02; [5]): 73.5 nM
- Kd (HLA-B*44:02; [5]): 1930 nM
- Kd (HLA-B*44:03; [5]): 1640 nM
- Kd (HLA-B*45:01; [5]): 8.59 nM

Sequence: AELLPDTTYL
- Kd (HLA-B*18:01; [6]): ≥ 70400 nM
- Kd (HLA-B*40:01; [6]): 9780 nM
- Kd (HLA-B*40:02; [6]): 167 nM
- Kd (HLA-B*44:02; [6]): 561 nM
- Kd (HLA-B*44:03; [6]): 1210 nM
- Kd (HLA-B*45:01; [6]): 17300 nM

Sequence: AENVIVGLV
- Kd (HLA-B*18:01; [7]): ≥ 77500 nM
- Kd (HLA-B*40:01; [7]): 2930 nM
- Kd (HLA-B*40:02; [7]): 30 nM
- Kd (HLA-B*44:02; [7]): 142 nM
- Kd (HLA-B*44:03; [7]): 340 nM
- Kd (HLA-B*45:01; [7]): 3.39 nM

Sequence: AETGSQGVY
- Kd (HLA-B*18:01; [8]): 6630 nM
- Kd (HLA-B*40:01; [8]): 15900 nM
- Kd (HLA-B*40:02; [8]): 638 nM
- Kd (HLA-B*44:02; [8]): 271 nM
- Kd (HLA-B*44:03; [8]): 228 nM
- Kd (HLA-B*45:01; [8]): 211 nM

Sequence: AEVEWKFYDA
- Kd (HLA-B*18:01; [5]): 1540 nM
- Kd (HLA-B*40:01; [5]): 8440 nM
- Kd (HLA-B*40:02; [5]): 4690 nM
- Kd (HLA-B*44:02; [5]): 79 nM
- Kd (HLA-B*44:03; [5]): 90.5 nM
- Kd (HLA-B*45:01; [5]): 5.54 nM

Sequence: ALKANNKVY
- Kd (HLA-A*26:01 [1]): ≥ 20000 nM
- Kd (HLA-B*15:01): 708 nM

Sequence: ANNKVYEAY
- Kd (HLA-B*15:01): 499 nM

Sequence: CEKALKYLPI
- Kd (HLA-B*18:01; [5]): ≥ 29100 nM
- Kd (HLA-B*40:01; [5]): 6970 nM
- Kd (HLA-B*40:02; [5]): 30.3 nM
- Kd (HLA-B*44:02; [5]): 127 nM
- Kd (HLA-B*44:03; [5]): 1150 nM
- Kd (HLA-B*45:01; [5]): 104 nM

Sequence: CEMNHVNSM
- Kd (HLA-B*18:01; [9]): 467 nM
- Kd (HLA-B*40:01; [9]): 2970 nM
- Kd (HLA-B*40:02; [9]): 67 nM
- Kd (HLA-B*44:02; [9]): 178 nM
- Kd (HLA-B*44:03; [9]): 963 nM
- Kd (HLA-B*45:01; [9]): 214 nM

Sequence: DEADLDEILL
- Kd (HLA-B*18:01; [10]): 1700 nM
- Kd (HLA-B*40:01; [10]): 18100 nM
- Kd (HLA-B*40:02; [10]): 5930 nM
- Kd (HLA-B*44:02; [10]): ≥ 45600 nM
- Kd (HLA-B*44:03; [10]): ≥ 26900 nM
- Kd (HLA-B*45:01; [10]): ≥ 45000 nM

Sequence: DLTDYLMKI
- Kd (HLA-A*68:02; source organism: Homo sapiens): 3720 nM

Sequence: EAAGIFMTA
- Kd (HLA-A*68:02; [11]): 0.37 nM

Sequence: EIAETQHGTI
- Kd (HLA-A*68:02; [11]): 101 nM

Sequence: ESPSKLASAI
- Kd (HLA-A*26:01 [2]; [11]): ≥ 66200 nM
- Kd (HLA-A*68:02; [11]): 74.2 nM

Sequence: ETMETLLLL
- Kd (HLA-A*01:01): 11500 nM
- Kd (HLA-A*26:01 [2]; [12]): 96.4 nM
- Kd (HLA-A*68:02; [12]): 17.4 nM

Sequence: EVSETQHGTI
- Kd (HLA-A*68:02; [12]): 193 nM

Sequence: FAIPIAEQI
- Kd (HLA-B*51:01 [3]): ≥ 20000 nM

Sequence: FANYKFTLV
- Kd (HLA-A*02:02): 73.8 nM
- Kd (HLA-A*02:03): 0.609 nM
- Kd (HLA-A*02:06; [13]): 0.469 nM
- Kd (HLA-A*68:02; [13]): 17.9 nM

Sequence: FANYNFTLL
- Kd (HLA-A*02:02): 0.0839 nM
- Kd (HLA-A*02:03): 3.42 nM
- Kd (HLA-A*02:06; [13]): 0.122 nM
- Kd (HLA-A*68:02; [13]): 0.151 nM

Sequence: FDAAVMGGF
- Kd (HLA-B*18:01; [10]): ≥ 39800 nM
- Kd (HLA-B*40:01; [10]): ≥ 32300 nM
- Kd (HLA-B*40:02; [10]): 5230 nM
- Kd (HLA-B*44:02; [10]): ≥ 27400 nM
- Kd (HLA-B*44:03; [10]): 18400 nM
- Kd (HLA-B*45:01; [10]): ≥ 77700 nM

Sequence: FEHIVYGDF
- Kd (HLA-B*18:01; [5]): 1260 nM
- Kd (HLA-B*40:01; [5]): 7140 nM
- Kd (HLA-B*40:02; [5]): 782 nM
- Kd (HLA-B*44:02; [5]): 1870 nM
- Kd (HLA-B*44:03; [5]): 13100 nM
- Kd (HLA-B*45:01; [5]): ≥ 22300 nM

Sequence: FEIDKGIYQT
- Kd (HLA-B*18:01; [5]): 6400 nM
- Kd (HLA-B*40:01; [5]): 738 nM
- Kd (HLA-B*40:02; [5]): 47.3 nM
- Kd (HLA-B*44:02; [5]): ≥ 56500 nM
- Kd (HLA-B*44:03; [5]): 11800 nM
- Kd (HLA-B*45:01; [5]): 3100 nM

Sequence: FSRENSYSGV
- Kd (HLA-B*51:01 [4]): ≥ 44800 nM

Sequence: FTVIALFLA
- Kd (HLA-A*02:06; [14]): 3.16 nM
- Kd (HLA-A*68:02; [14]): 136 nM

Sequence: GDEALTGFL
- Kd (HLA-B*18:01; [7]): 5820 nM
- Kd (HLA-B*40:01; [7]): 908 nM
- Kd (HLA-B*40:02; [7]): 2990 nM
- Kd (HLA-B*44:02; [7]): 13800 nM
- Kd (HLA-B*44:03; [7]): ≥ 78100 nM
- Kd (HLA-B*45:01; [7]): ≥ 22600 nM

Sequence: GENAVIPKG
- Kd (HLA-B*18:01; [5]): ≥ 77500 nM
- Kd (HLA-B*40:01; [5]): ≥ 76200 nM
- Kd (HLA-B*40:02; [5]): 907 nM
- Kd (HLA-B*44:02; [5]): 2030 nM
- Kd (HLA-B*44:03; [5]): 2230 nM
- Kd (HLA-B*45:01; [5]): 828 nM

Sequence: GPLIAGGML
- Kd (HLA-B*07:02): 127 nM
